Laboratory results reported in US20040053355A1, “Modular approach to on-line synthesis, drug discovery and biochemical transformations using immobilized enzyme reactors” (priority 2000, published 2004).

B1: DBH-Glut-P IMER (immobilized dopamine beta-hydroxylase) (Bos taurus) (protein)
chain: MQVPSPSVREAASMYGTAVAVFLVILVAALQGSAPAESPFPFHIPLDPEGTLELSWNISYAQETIYFQLLVRELKAGVLFGMSDRGELENADLVVLWTDRDGAYFGDAWSDQKGQVHLDSQQDYQLLRAQRTPEGLYLLFKRPFGTCDPNDYLIEDGTVHLVYGFLEEPLRSLESINTSGLHTGLQRVQLLKPSIPKPALPADTRTMEIRAPDVLIPGQQTTYWCYVTELPDGFPRHHIVMYEPIVTEGNEALVHHMEVFQCAAEFETIPHFSGPCDSKMKPQRLNFCRHVLAAWALGAKAFYYPEEAGLAFGGPGSSRFLRLEVHYHNPLVITGRRDSSGIRLYYTAALRRFDAGIMELGLAYTPVMAIPPQETAFVLTGYCTDKCTQLALPASGIHIFASQLHTHLTGRKVVTVLARDGRETEIVNRDNHYSPHFQEIRMLKKVVSVQPGDVLITSCTYNTEDRRLATVGGFGILEEMCVNYVHYYPQTQLELCKSAVDPGFLHKYFRLVNRFNSEEVCTCPQASVPEQFASVPWNSFNREVLKALYGFAPISMHCNRSSAVRFQGEWNRQPLPEIVSRLEEPTPHCPASQAQSPAGPTVLNISGGKG
notes: purchased
B2: dopamine beta-hydroxylase immobilized onto Glut-P (DBH-Glut-P) (Bos taurus) (protein)
chain: MQVPSPSVREAASMYGTAVAVFLVILVAALQGSAPAESPFPFHIPLDPEGTLELSWNISYAQETIYFQLLVRELKAGVLFGMSDRGELENADLVVLWTDRDGAYFGDAWSDQKGQVHLDSQQDYQLLRAQRTPEGLYLLFKRPFGTCDPNDYLIEDGTVHLVYGFLEEPLRSLESINTSGLHTGLQRVQLLKPSIPKPALPADTRTMEIRAPDVLIPGQQTTYWCYVTELPDGFPRHHIVMYEPIVTEGNEALVHHMEVFQCAAEFETIPHFSGPCDSKMKPQRLNFCRHVLAAWALGAKAFYYPEEAGLAFGGPGSSRFLRLEVHYHNPLVITGRRDSSGIRLYYTAALRRFDAGIMELGLAYTPVMAIPPQETAFVLTGYCTDKCTQLALPASGIHIFASQLHTHLTGRKVVTVLARDGRETEIVNRDNHYSPHFQEIRMLKKVVSVQPGDVLITSCTYNTEDRRLATVGGFGILEEMCVNYVHYYPQTQLELCKSAVDPGFLHKYFRLVNRFNSEEVCTCPQASVPEQFASVPWNSFNREVLKALYGFAPISMHCNRSSAVRFQGEWNRQPLPEIVSRLEEPTPHCPASQAQSPAGPTVLNISGGKG
notes: purchased

Tests used:
[1] = substrate: NCCc1ccc(O)cc1; assay: On-line DBH-Glut-P immobilized enzyme reactor (DBH-Glut-P IMER) HPLC system; type: biochemical, bovine; settings: other: DBH-IMER (DBH-Glut-P IMER), 0.3 ml/min, contact time 10 min, 37° C.
Source text: DBH immobilized on the IAM or Glut-P stationary phase was packed into a 1 cm×10 mm guard (Regis Technologies). The guard was placed in a holder and the resulting column connected to a chromatographic system. THE DBH-IAM-IMER and the DBH-Glut-P-IMER was washed with sodium acetate buffer [0.1M, pH 5.5] and sodium acetate buffer [0.1M, pH 6.0], respectively. The eluent from both IMERs was collected in order to determine if any of the DBH was being washed off the columns. The Biorad assay was utilized to measure the amount of non-immobilized enzyme. When the columns were not in use they were washed with sodium acetate buffer at the respective pHs and stored at 4° C.
Pumps 2 and 3 on system 2 and 3 were stopped. […]
The enzymatic activity on the DBH-Glut-P was determined by quantification of the amount of product formed with a given substrate. […] The kinetic parameters were determined using standard Michaelis-Menten approach. […] The rates of reaction (Vmax) were calculated using […]mol/mg/min. Results are expressed as mean±standard error of the mean (SEM). […]

[2] = substrate: NCCc1ccc(O)cc1; assay: DBH immobilized onto Glut-P stationary phase (DBH-Glut-P, DBH-Glut-P-SP), batch assay; type: biochemical, bovine; settings: other: DBH-Glut-P (DBH-Glut-P-SP); 37.0 °C
Procedure: The enzyme was assayed as follows: four different solutions were prepared A, B, C and D (final concentration). (A) 500 μL of enzyme solution (10 μg/ml); B: 275 μL sodium acetate buffer (10 mM, pH 5.5), 50 μL cupric sulphate (5 μM); C: 25 μL catalase (5 μg/ml), 50 μL ascorbic acid (10 mM), 50 μl sodium fumarate (10 mM); D: 50 μl substrate (5 mM). Solution B was added to solution A, the resulting solution was mixed for 1 min. Solution C was added and the resulting solution was mixed for an additional minute. The reaction was started with the addition of the substrate (D), after which the reaction solution was incubated for 5 min at 37° C. in a shaking bath. […]
The packing material was washed three times with sodium acetate buffer (0.1M, pH 6). […] The enzyme solution (8-10 μg in 1 ml sodium acetate buffer] was added to the packing material, the mixture was vortexed for 2 min and then placed on a shaker/rotator for 6 h at ambient temperature. At the end of 6 h, the suspension was centrifuged, the supernatant decanted and the packing material washed three additional times with the buffer. The amount of residual enzyme was determined utilizing the same procedure as that carried out for the enzyme immobilized onto IAM.

Protein | Km [1] [µM] | Vmax [1] [µmol/mg/min] | Km [2] [µM] | Vmax [2] [µmol/mg/min]
B1 | 2760 | 0.079 |  | 
B2 |  |  | 1040 | 0.112
